Test results from US20260167699A1 (Chugai, published 2026).

These binders were tested against T1, FcγRIIIa (human, UniProt P08637 17-208) (assay: SPR (Biacore);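 also: antibody variants captured on an SPR sensor chip, with FcγRIIIa passed over as analyte in HBS-EP+ buffer at 25 °C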).
T1 construct: extracellular domain; also called 3a; FcγRIIIa extracellular domain
T1 sequence (P08637 other isoform, or with tags, fused parts or gaps): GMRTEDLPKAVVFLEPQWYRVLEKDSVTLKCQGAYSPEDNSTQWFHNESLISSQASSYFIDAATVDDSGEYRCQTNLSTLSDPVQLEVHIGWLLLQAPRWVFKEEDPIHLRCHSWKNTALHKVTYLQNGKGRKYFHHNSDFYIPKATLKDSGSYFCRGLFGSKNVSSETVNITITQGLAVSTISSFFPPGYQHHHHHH

Row | He/Con 3a | Binder
1 | 68 % of GpH7-A5/GpH7-B3/GpL16-k0 | GpH7-A5/GpH7-B3 variant N325_16H/GpL16-k0 (antibody, human IgG1, kappa, copies: 1 + 1 + 2) heavy 1: not shown heavy 2: not shown light: DIVMTQSPLSLPVTPGEPASISCQASESLVHSNRNTYLHWYLQKPGQSPQLLIYKVSNRFSGVPDRFSGSGSGTDFTLKISRVEAEDVGVYYCSQNTHVPPTFGQGTKVEIERTVAAPSVFIFPPSDEQLKSGTASVVCLLNNFYPREAKVQWKVDNALQSGNSQESVTEQDSKDSTYSLSSTLTLSKADYEKHKVYACEVTHQGLSSPVTKSFNRGEC
2 | 80.2 % of GpH7-A5/GpH7-B3/GpL16-k0 | GpH7-A5/GpH7-B3 variant P271_07I/GpL16-k0 (antibody, human IgG1, kappa, copies: 1 + 1 + 2) heavy 1: not shown heavy 2: not shown light: DIVMTQSPLSLPVTPGEPASISCQASESLVHSNRNTYLHWYLQKPGQSPQLLIYKVSNRFSGVPDRFSGSGSGTDFTLKISRVEAEDVGVYYCSQNTHVPPTFGQGTKVEIERTVAAPSVFIFPPSDEQLKSGTASVVCLLNNFYPREAKVQWKVDNALQSGNSQESVTEQDSKDSTYSLSSTLTLSKADYEKHKVYACEVTHQGLSSPVTKSFNRGEC
3 | 84.6 % of GpH7-A5/GpH7-B3/GpL16-k0 | GpH7-A5/GpH7-B3 variant P271_19Q/GpL16-k0 (antibody, human IgG1, kappa, copies: 1 + 1 + 2) heavy 1: not shown heavy 2: not shown light: DIVMTQSPLSLPVTPGEPASISCQASESLVHSNRNTYLHWYLQKPGQSPQLLIYKVSNRFSGVPDRFSGSGSGTDFTLKISRVEAEDVGVYYCSQNTHVPPTFGQGTKVEIERTVAAPSVFIFPPSDEQLKSGTASVVCLLNNFYPREAKVQWKVDNALQSGNSQESVTEQDSKDSTYSLSSTLTLSKADYEKHKVYACEVTHQGLSSPVTKSFNRGEC
4 | 65.6 % of GpH7-A5/GpH7-B3/GpL16-k0 | GpH7-A5/GpH7-B3 variant P271_04F/GpL16-k0 (antibody, human IgG1, kappa, copies: 1 + 1 + 2) heavy 1: not shown heavy 2: not shown light: DIVMTQSPLSLPVTPGEPASISCQASESLVHSNRNTYLHWYLQKPGQSPQLLIYKVSNRFSGVPDRFSGSGSGTDFTLKISRVEAEDVGVYYCSQNTHVPPTFGQGTKVEIERTVAAPSVFIFPPSDEQLKSGTASVVCLLNNFYPREAKVQWKVDNALQSGNSQESVTEQDSKDSTYSLSSTLTLSKADYEKHKVYACEVTHQGLSSPVTKSFNRGEC
5 | 94 % of GpH7-A5/GpH7-B3/GpL16-k0 | GpH7-A5/GpH7-B3 variant P271_18N/GpL16-k0 (antibody, human IgG1, kappa, copies: 1 + 1 + 2) heavy 1: not shown heavy 2: not shown light: DIVMTQSPLSLPVTPGEPASISCQASESLVHSNRNTYLHWYLQKPGQSPQLLIYKVSNRFSGVPDRFSGSGSGTDFTLKISRVEAEDVGVYYCSQNTHVPPTFGQGTKVEIERTVAAPSVFIFPPSDEQLKSGTASVVCLLNNFYPREAKVQWKVDNALQSGNSQESVTEQDSKDSTYSLSSTLTLSKADYEKHKVYACEVTHQGLSSPVTKSFNRGEC
6 | 70.3 % of GpH7-A5/GpH7-B3/GpL16-k0 | GpH7-A5/GpH7-B3 variant P271_16H/GpL16-k0 (antibody, human IgG1, kappa, copies: 1 + 1 + 2) heavy 1: not shown heavy 2: not shown light: DIVMTQSPLSLPVTPGEPASISCQASESLVHSNRNTYLHWYLQKPGQSPQLLIYKVSNRFSGVPDRFSGSGSGTDFTLKISRVEAEDVGVYYCSQNTHVPPTFGQGTKVEIERTVAAPSVFIFPPSDEQLKSGTASVVCLLNNFYPREAKVQWKVDNALQSGNSQESVTEQDSKDSTYSLSSTLTLSKADYEKHKVYACEVTHQGLSSPVTKSFNRGEC
7 | 79.8 % of GpH7-A5/GpH7-B3/GpL16-k0 | GpH7-A5/GpH7-B3 variant P271_13S/GpL16-k0 (antibody, human IgG1, kappa, copies: 1 + 1 + 2) heavy 1: not shown heavy 2: not shown light: DIVMTQSPLSLPVTPGEPASISCQASESLVHSNRNTYLHWYLQKPGQSPQLLIYKVSNRFSGVPDRFSGSGSGTDFTLKISRVEAEDVGVYYCSQNTHVPPTFGQGTKVEIERTVAAPSVFIFPPSDEQLKSGTASVVCLLNNFYPREAKVQWKVDNALQSGNSQESVTEQDSKDSTYSLSSTLTLSKADYEKHKVYACEVTHQGLSSPVTKSFNRGEC
8 | 74 % of GpH7-A5/GpH7-B3/GpL16-k0 | GpH7-A5/GpH7-B3 variant P271_06M/GpL16-k0 (antibody, human IgG1, kappa, copies: 1 + 1 + 2) heavy 1: not shown heavy 2: not shown light: DIVMTQSPLSLPVTPGEPASISCQASESLVHSNRNTYLHWYLQKPGQSPQLLIYKVSNRFSGVPDRFSGSGSGTDFTLKISRVEAEDVGVYYCSQNTHVPPTFGQGTKVEIERTVAAPSVFIFPPSDEQLKSGTASVVCLLNNFYPREAKVQWKVDNALQSGNSQESVTEQDSKDSTYSLSSTLTLSKADYEKHKVYACEVTHQGLSSPVTKSFNRGEC
9 | 71.3 % of GpH7-A5/GpH7-B3/GpL16-k0 | GpH7-A5/GpH7-B3 variant P238_08L/GpL16-k0 (antibody, human IgG1, kappa, copies: 1 + 1 + 2) heavy 1: not shown heavy 2: not shown light: DIVMTQSPLSLPVTPGEPASISCQASESLVHSNRNTYLHWYLQKPGQSPQLLIYKVSNRFSGVPDRFSGSGSGTDFTLKISRVEAEDVGVYYCSQNTHVPPTFGQGTKVEIERTVAAPSVFIFPPSDEQLKSGTASVVCLLNNFYPREAKVQWKVDNALQSGNSQESVTEQDSKDSTYSLSSTLTLSKADYEKHKVYACEVTHQGLSSPVTKSFNRGEC
10 | 52.7 % of GpH7-A5/GpH7-B3/GpL16-k0 | GpH7-A5/GpH7-B3 variant P238_19Q/GpL16-k0 (antibody, human IgG1, kappa, copies: 1 + 1 + 2) heavy 1: not shown heavy 2: not shown light: DIVMTQSPLSLPVTPGEPASISCQASESLVHSNRNTYLHWYLQKPGQSPQLLIYKVSNRFSGVPDRFSGSGSGTDFTLKISRVEAEDVGVYYCSQNTHVPPTFGQGTKVEIERTVAAPSVFIFPPSDEQLKSGTASVVCLLNNFYPREAKVQWKVDNALQSGNSQESVTEQDSKDSTYSLSSTLTLSKADYEKHKVYACEVTHQGLSSPVTKSFNRGEC
11 | 74.5 % of GpH7-A5/GpH7-B3/GpL16-k0 | GpH7-A5/GpH7-B3 variant P271_08L/GpL16-k0 (antibody, human IgG1, kappa, copies: 1 + 1 + 2) heavy 1: not shown heavy 2: not shown light: DIVMTQSPLSLPVTPGEPASISCQASESLVHSNRNTYLHWYLQKPGQSPQLLIYKVSNRFSGVPDRFSGSGSGTDFTLKISRVEAEDVGVYYCSQNTHVPPTFGQGTKVEIERTVAAPSVFIFPPSDEQLKSGTASVVCLLNNFYPREAKVQWKVDNALQSGNSQESVTEQDSKDSTYSLSSTLTLSKADYEKHKVYACEVTHQGLSSPVTKSFNRGEC
